According to US20040180399A1 (Pfizer, published 2004):

B1: recombinant human IL-TIF/IL-22 (ligand, UniProt Q9GZX6 34-179, looked up)
chain: APISSHCRLDKSNFQQPYITNRTFMLAKEASLADNNTDVRLIGEKLFHGVSMSERCYLMKQVLNFTLEEVLFPQSDRFQPYMQEVVPFLARLSNRLSTCHIEGDDLHIQRNVQKLKDTVKKLGESGEIKAIGELDLLFMSLRNACI
B2: IL-22BP-Ig (Fc fusion)
chain: TQSTHESLKPQRVQFQSRNFHNILQWQPGRALTGNSSVYFVQYKIYGQRQWKNKEDCWGTQELSCDLTSETSDIQEPYYGRVRAASAGSYSEWSMTPRFTPWWETKIDPPVMNITQVNGSLLVILHAPNLPYRYQKEKNVSIEDYYELLYRVFIINNSLEKEQKVYEGAHRAVEIEALTPHSSYCVVAEIYQPMLDRRSQRSEERCVEIP
notes: Used as supernatant of transiently transfected HEK293 cells; it may begin with Met or Met Met; also called IL-TIFR-Ig; IL-22BP fusion protein; not shown: hinge, CH2 and CH3 domains of murine IgG3 isotype heavy chain, amplified from IgG3 anti-TNP hybridoma C3110
B3: IL-22R-Ig (Fc fusion, UniProt Q8N6P7 16-228, looked up)
chain: HAPEDPSDLLQHVKFQSSNFENILTWDSGPEGTPDTVYSIEYKTYGERDWVAKKGCQRITRKSCNLTVETGNLTELYYARVTAVSAGGRSATKMTDRFSSLQHTTLKPPDVTCISKVRSIQMIVHPTPTPIRAGDGHRLTLEDIFHDLFYHLELQVNRTYQMHLGGKQREYEFFGLTPDTEFLGTIMICVPTWAKESAPYMCRVKTLPDRTWT
notes: Used as supernatant of transiently transfected HEK293 cells; also called fusion protein of IL-22R and the IgG3 Fc fragment; not shown: IgG3 Fc fragment, made 'in similar fashion' to the murine IgG3 hinge-CH2-CH3 of IL-TIFR-Ig

Columns and labels:
IL-22BP-Ig = biological target: B2; assay: ELISA, IL-TIF/IL-22 coated on plate, HEK293 supernatant, anti-Ig peroxidase detection
Experimental: (§1) Assays were then carried out by coating polystyrene plates with either 0.083 mg/ml of recombinant human IL-TIF/IL-22, or […] bovine serum albumin, in 20 mm Tris. Glycine buffer containing 30 mm NaCl, pH 9.2, overnight, at 4° C. Following washing in PBS buffer plus Tween 20 (10⁻⁴) plates were blocked with PBS plus 1% BSA for two hours, and then 50 μl of supernatant from transiently transfected HEK293 cells was added. Plates were then incubated for 2 hours, at 37° C. Any bound fusion protein was detected, using murine anti-Ig polyclonal antibodies coupled to peroxidase. Detection was carried out using the peroxidase substrate “TMB”, or (3,3′,5, 5′-tetramethylbenzidine), and stopped by 20 μl H₂S0_{4.}

bovine serum albumin = biological target: T1, bovine serum albumin (bovine, UniProt P02769 25-607); assay: ELISA, coated plate, HEK293 supernatant, anti-Ig peroxidase detection
T1 construct: Negative control coating in the ELISA; also called BSA
Experimental: as §1

T1 sequence (P02769 25-607 limits assumed): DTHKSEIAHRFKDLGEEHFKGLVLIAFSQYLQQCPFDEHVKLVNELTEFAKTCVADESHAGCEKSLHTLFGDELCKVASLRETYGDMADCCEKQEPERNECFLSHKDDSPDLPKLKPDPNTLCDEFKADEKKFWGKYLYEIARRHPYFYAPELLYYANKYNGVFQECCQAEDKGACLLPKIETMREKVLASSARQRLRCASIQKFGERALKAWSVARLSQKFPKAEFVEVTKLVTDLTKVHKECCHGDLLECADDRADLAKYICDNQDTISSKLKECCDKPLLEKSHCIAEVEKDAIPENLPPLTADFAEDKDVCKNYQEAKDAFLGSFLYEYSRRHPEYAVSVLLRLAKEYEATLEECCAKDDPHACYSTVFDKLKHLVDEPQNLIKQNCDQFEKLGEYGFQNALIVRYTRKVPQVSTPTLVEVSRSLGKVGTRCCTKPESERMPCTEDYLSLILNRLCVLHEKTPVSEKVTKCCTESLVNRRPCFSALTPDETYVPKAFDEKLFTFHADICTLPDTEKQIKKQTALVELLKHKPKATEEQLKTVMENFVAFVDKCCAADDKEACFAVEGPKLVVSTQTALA

binding result (IL-22BP-Ig)	binding result (bovine serum albumin)	Binder
binds	–	B1
–	no binding	B2
–	no binding	B3
